# Measurements as given in patent US5767073, “D4 gene and methods of use thereof” (Beth Israel Hospital Association, dated 1998).
# B1: GST-GN LC (chimera of the entire rho GDI sequence except that the carboxyl terminal 33 amino acids were from LD4) (other)
# chain: MAEQEPTAEQLAQIAAENEEDEHSVNYKPPAQKSIQEIQELDKDDESLRKYKEALLGRVAVSADPNVPNVVVTGLTLVCSSAPGPLELDLTGDLESFKKQSFVLKEGVEYRIKISFRVNREIVSGMKYIQHTYRKGVKIDKTDYMVGSYGPRAEEYEFLTPVEEAPKGMLAQDTYHNKSFFTDDDKQDHLSWEWNLSIKKEWTE
# B2: GST-LD4 (glutathione-S-transferase fusion protein of LD4) (other)
# chain: MTEKAPEPHVEEDDDDELDSKLNYKPPPQKSLKELQEMDKDDESLIKYKKTLLGDGPVVTDPKAPNVVVTRLTLVCESAPGPITMDLTGDLEALKKETIVLKEGSEYRVKIHFKVNRDIVSGLKYVQHTYRTGVKVDKATFMVGSYGPRPEEYEFLTPVEEAPKGMLAQDTYHNKSFFTDDDKQDHLSWEWNLSIKKEWTE
# B3: GST-mD4 (glutathione-S-transferase fusion protein of murine D4) (protein)
# chain: MTEKDAQPQLEEADDDLDSKLNYKPPPQKSLKELQEMDKDDESLTKYKKTLLGDVPVVADPTVPNVTVTRLSLVCDSAPGPITMDLTGDLEALKKDTFVLKEGIEYRVKINFKVNKDIVSGLKYVQHTYRTGMRVDKATFMVGSYGPRPEEYEFLTPVEEAPKGMLARGTYHNKSFFTDDDKQDHLTWEWNLAIKKDWTEZ
# Experiments:
# CDC42Hs [1] = biological target: T1, CDC42Hs (human, UniProt P60953)
# CDC42Hs [2] = biological target: T1, CDC42Hs; experiment: inferred from the dose response of GDI activity; reference rhoGDI
# [3] = biological target: rac 1 (Homo sapiens (Human)) (UniProt P63000); experiment: as above
# CDC42Hs [4] = biological target: T1, CDC42Hs; experiment: cell-based or functional assay
# CDC42Hs (human) [5] = biological target: CDC42Hs (human) (UniProt P60953)
# CDC42Hs (human) [6] = biological target: CDC42Hs (human) (UniProt P60953); remark: listed apart in the source
# CDC42Hs (human) [7] = biological target: CDC42Hs (human) (UniProt P60953); experiment: inferred from the dose response of GDI activity; reference rhoGDI
molecule,measurement,setting,value
human D4 protein,GDI activity (times more concentration than rhoGDI),CDC42Hs [1],> 10
same,times lower binding than rhoGDI,CDC42Hs [2],30 to 40 times
same,times lower binding than rhoGDI,[3],30 to 40 times
B1,GDP dissociation inhibition assay,CDC42Hs [4],≥ 20 fold less effective than rho GDI
B2,"apparent EC50, GDP dissociation inhibition assay",CDC42Hs [4],7 to 8 µM
B3,GDI activity (times more concentration than rhoGDI),CDC42Hs (human) [5],> 10
same,"apparent EC50, GDP dissociation inhibition assay",CDC42Hs (human) [6],7 to 8 µM
same,times lower binding than rhoGDI,CDC42Hs (human) [7],30 to 40 times
